The text below walks through data of patent US20140087995A1 (published 2014).

For orientation: IC50 means the concentration that gives 50% inhibition.

Experiment [1] has as its target T1, rat calcitonin receptor (rat, UniProt P32214 25-516).
T1 construct: whole, on cells; membranes of transiently transfected BHK tk'ts 13 cells (Assay VIII); also called rCTR; rat calcitonin (a) receptor
T1 sequence (looked up): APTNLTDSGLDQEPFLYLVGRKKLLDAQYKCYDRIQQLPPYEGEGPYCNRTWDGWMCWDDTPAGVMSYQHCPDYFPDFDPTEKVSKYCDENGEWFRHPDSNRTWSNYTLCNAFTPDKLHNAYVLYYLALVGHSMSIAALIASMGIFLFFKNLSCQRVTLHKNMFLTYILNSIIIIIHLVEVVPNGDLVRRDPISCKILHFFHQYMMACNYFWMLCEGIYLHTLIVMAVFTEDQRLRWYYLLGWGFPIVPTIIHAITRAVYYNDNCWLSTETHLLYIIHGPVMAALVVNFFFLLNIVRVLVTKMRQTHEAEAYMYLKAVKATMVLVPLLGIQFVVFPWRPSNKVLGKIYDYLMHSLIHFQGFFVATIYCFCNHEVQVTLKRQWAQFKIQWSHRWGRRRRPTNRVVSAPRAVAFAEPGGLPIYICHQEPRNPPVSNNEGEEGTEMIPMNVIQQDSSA
The experiment can be described thus: IC50 on rat calcitonin receptor divided by IC50 on rat amylin receptor (SPA competition).

Experiment [2] addresses T2, human calcitonin receptor (human, UniProt P30988 25-474).
T2 construct: whole, on cells; membranes of stably transfected BHK cells (Assay VII); also called hCTR; hCT
T2 sequence (looked up): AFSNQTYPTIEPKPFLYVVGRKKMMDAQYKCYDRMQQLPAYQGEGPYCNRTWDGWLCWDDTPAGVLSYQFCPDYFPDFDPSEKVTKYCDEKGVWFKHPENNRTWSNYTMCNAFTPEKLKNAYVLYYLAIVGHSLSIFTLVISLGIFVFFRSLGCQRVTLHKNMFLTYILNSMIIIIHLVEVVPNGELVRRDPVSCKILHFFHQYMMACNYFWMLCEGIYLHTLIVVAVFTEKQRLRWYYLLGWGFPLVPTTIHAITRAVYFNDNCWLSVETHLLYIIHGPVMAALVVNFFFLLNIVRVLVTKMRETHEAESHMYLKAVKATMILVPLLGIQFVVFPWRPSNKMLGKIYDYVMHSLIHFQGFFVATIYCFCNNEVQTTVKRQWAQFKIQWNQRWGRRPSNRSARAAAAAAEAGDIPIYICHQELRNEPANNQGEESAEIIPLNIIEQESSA
The experiment can be described thus: IC50 on human calcitonin receptor divided by IC50 on human amylin receptor (SPA competition). How it is done: (§1) The resulting pellet was resuspended, homogenized and centrifuged (20.000 rpm, 15 min) in a buffer containing 20 mM Na-HEPES and 0.1 mM EDTA (pH 7.4, buffer 2). The resulting pellet was resuspended in buffer 2 and protein concentration was measured (BCA protein Assay, Pierce). The homogenate was kept cold during the whole procedure. The membranes were kept at −80° C. until use. The assay was performed in a 384 well Optiplate (PerkinElmer) in a total volume of 40 ul. Membranes were mixed with SPA beads. Final concentration of membranes 35 ng/μL final and SPA beads was 0.05 mg/well. Test-compounds were dissolved in DMSO and further diluted in assay buffer (50 mM Hepes, pH 7.4, 1 mM CaCl2, 5 mM MgCl₂, 0.1% OA and 0.02% Tween20). […] The final mixture was incubated with shaking at 400 rpm for 120 min at 25° C. prior to centrifugation (1500 rpm, 10 min). Samples were analyzed on TopCounter™ (Packard). The IC₅₀ was calculated using (one site binding competition analysis) GraphPad Prism5 as a measure of receptor affinity.
(§2) Membranes were prepared in the following way; the cells were rinsed with PBS and incubated with Versene for approximately 5 min before harvesting. The cells were flushed with PBS and the cell-suspension was centrifuged for 5 min at 1000 rpm. Cells were homogenized (Ultrathurrax) in a buffer containing 20 mM Na-HEPES and 10 mM EDTA (pH 7.4) and centrifuged at 20.000 rpm for 15 min. The resulting pellet was resuspended, homogenized and centrifuged (20.000 rpm, 15 min) in a buffer containing 20 mM Na-HEPES and 0.1 mM EDTA (pH 7.4, buffer 2). The resulting pellet was resuspended in buffer 2 and protein concentration was measured (BCA protein Assay, Pierce). The homogenate was kept cold during the whole procedure. The membranes were kept at −80° C. until use. Assay was performed in a 384 well Optiplate (PerkinElmer) in a total volume of 40 ul. Membranes were mixed with SPA beads.

Experiment [3] has as its target T1, rat calcitonin receptor. The experiment can be described thus: SPA competition with 125I-calcitonin, membranes of BHK cells with rat calcitonin receptor (Assay VIII).
Experiment [4] concerns the target T3, rat amylin receptor (rat calcitonin receptor + rat RAMP 3) (rat, UniProt P32214 25-516; Q9JJ73 23-147).
T3 construct: whole, on cells; membranes of transiently transfected BHK tk'ts 13 cells (Assay VI); also called rAmylin-R; rat amylin 3(a) receptor
T3 sequence (looked up) 1: T1 sequence (looked up)
T3 sequence (looked up) 2: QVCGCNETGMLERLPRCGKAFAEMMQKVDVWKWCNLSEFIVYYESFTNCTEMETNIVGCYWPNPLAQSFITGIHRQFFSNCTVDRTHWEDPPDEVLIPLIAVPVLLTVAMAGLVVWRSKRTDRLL
In words: SPA competition with 125I-rat amylin, membranes of BHK cells with rat calcitonin receptor + rat RAMP3 (Assay VI).

For experiment [5], the target named is T4, human calcitonin receptor (human, UniProt P30988 25-474).
T4 construct: whole, on cells; Membranes of a BHK tk'ts 13 cell line stably transfected with the human calcitonin receptor; also called hCTR; hCT
T4 sequence (looked up): T2 sequence (looked up)
In words: IC50 at hCTR divided by IC50 at hAmylin-R (reference). As to the method: as §1, §2

Experiment [6] has as its target T5, rat calcitonin receptor (rat, UniProt P32214 25-516).
T5 construct: whole, on cells; Membranes of BHK tk'ts 13 cells transiently transfected with the rat calcitonin receptor; also called rCTR; rat calcitonin (a) receptor
T5 sequence (looked up): T1 sequence (looked up)
The experiment can be described thus: SPA competition vs 125I-calcitonin, membranes with rat CTR (Assay VIII).

For experiment [7], the target named is T6, rat amylin receptor (rat calcitonin receptor + rat RAMP 3) (rat, UniProt P32214 25-516; Q9JJ73 23-147).
T6 construct: whole, on cells; Membranes of BHK tk'ts 13 cells transiently transfected with the rat calcitonin receptor and rat RAMP 3; also called rAmylin-R; rat amylin 3(a) receptor
T6 sequence (looked up) 1: T1 sequence (looked up)
T6 sequence (looked up) 2: T3 sequence (looked up) 2
In words: SPA competition vs 125I-rat amylin, membranes with rat CTR + rat RAMP3 (Assay VI). How it is done: The binding assay was performed using scintillation proximity assay (SPA) beads (RPNQ0001) from PerkinElmer and cell membranes from the Amylin 3(a)/CRE-luc cells (as described in Assay (II)) were used. Membranes were prepared in the following way; the cells were rinsed with PBS and incubated with Versene for approximately 5 min before harvesting. The cells were flushed with PBS and the cell-suspension was centrifuged for 5 min at 1000 rpm. Cells were homogenized (ultrathurrax) in a buffer containing 20 mM Na-HEPES and 10 mM EDTA (pH 7.4) and centrifuged at 20.000 rpm for 15 min. The resulting pellet was resuspended, homogenized and centrifuged (20.000 rpm, 15 min) in a buffer containing 20 mM Na-HEPES and 0.1 mM EDTA (pH 7.4, buffer 2). The resulting pellet was resuspended in buffer 2 and protein concentration was measured (BCA protein Assay, Pierce). The homogenate was kept cold during the whole procedure. The membranes were kept at −80° C. until use. The assay was performed in a 384 well Optiplate (PerkinElmer) in a total volume of 40 ul. Membranes were mixed with SPA beads. Final concentration of membranes 35 ng/μL final and SPA beads was 0.05 mg/well. Test-compounds were dissolved in DMSO and further diluted in assay buffer (50 mM Hepes, pH 7.4, 1 mM CaCl2, 5 mM MgCl₂, 0.1% OA and 0.02% Tween20). […] The final mixture was incubated with shaking at 400 rpm for 120 min at 25° C. prior to centrifugation (1500 rpm, 10 min). Samples were analyzed on TopCounter™ (Packard). The IC₅₀ was calculated using (one site binding competition analysis) GraphPad Prism5 as a measure of receptor affinity.
Cells were grown in DMEM with 10% FBS and 1% Pen/Strep. Approximately 48 hours after transfection, the cells were harvested and membranes were prepared.

Where a chain is given by its changes, count along the chain named. Numbered stars: 1 amine (or outer) side, 2 acyl side, 3 side chain; on linkers, the order of the positions; unused ones are H or OH. Bridge positions count the residues as written; N and C are the ends. Side chains are listed from the residue outwards. Ends that are not written are not given here. * marks the point of attachment. C20 diacid = O=C(O)CCCCCCCCCCCCCCCCCCC(=O)*; γGlu = O=C(O)[C@H](CCC(=O)[*:2])N[*:1]; AEEA = NCCOCCOCC(=O)O

B1: N^α1-[(4S)-4-carboxy-4-(19-carboxynonadecanoylamino)butanoyl]-[Arg17,Pro21,Pro27,Glu35]-h-amylin (peptide)
peptide: KCNTATCATQRLANFLRHSSPNFGAIPSSTNVGSETY
modifications: C20 diacid-gGlu on the alpha amino group of the N-terminal residue (Lys 1); disulfide bridge between the two Cys residues; C-terminal amide
notes: analogue of human amylin; also called compound 23
Consider B1, for which, in experiment [1], the “Ratio rCT/rAmylin binding” value was determined as 71.3. Also, the “Ratio hCT/hAmylin binding” value in experiment [2] is 25. The values for the IC50 in experiment [3] and in experiment [4] were 79.9 nM and 1.12 nM, respectively.

B2: N^α1-[(4S)-4-carboxy-4-(19-carboxynonadecanoylamino)butanoyl]-[Arg17,Pro21,Pro27,Arg34]-h-amylin (peptide)
peptide: B1 peptide with S34R, E35N
modifications: C20 diacid-gGlu on the alpha amino group of the N-terminal residue (Lys 1); disulfide bridge between the two Cys residues; C-terminal amide
notes: analogue of human amylin; also called compound 39
B2: in experiment [1], the “Ratio rCT/rAmylin binding” value was 54.5. For the same molecule, in experiment [2], the “Ratio hCT/hAmylin binding” value came out at 29. Besides, the figures for the 50% inhibitory concentration (IC50) in experiment [3] and in experiment [4] were 96.4 nM and 1.77 nM, respectively.

B3: N^α1 N^α1-[(4S)-4-carboxy-4-[[(4S)-4-carboxy-4-(19-carboxynonadecanoylamino)butanoyl]amino]butanoyl]-[Glu14,Arg17,Pro21,Pro27]-h-amylin (peptide)
peptide: {C20 diacid-γGlu-γGlu}-KCNTATCATQRLAEFLRHSSPNFGAIPSSTNVGSNTY-NH2
modifications: disulfide 2-7
SMILES: CC[C@H](C)[C@H](NC(=O)[C@H](C)NC(=O)CNC(=O)[C@H](Cc1ccccc1)NC(=O)[C@H](CC(N)=O)NC(=O)[C@@H]1CCCN1C(=O)[C@H](CO)NC(=O)[C@H](CO)NC(=O)[C@H](Cc1c[nH]cn1)NC(=O)[C@H](CCCNC(=N)N)NC(=O)[C@H](CC(C)C)NC(=O)[C@H](Cc1ccccc1)NC(=O)[C@H](CCC(=O)O)NC(=O)[C@H](C)NC(=O)[C@H](CC(C)C)NC(=O)[C@H](CCCNC(=N)N)NC(=O)[C@H](CCC(N)=O)NC(=O)[C@@H](NC(=O)[C@H](C)NC(=O)[C@@H]1CSSC[C@H](NC(=O)[C@H](CCCCN)NC(=O)CC[C@H](NC(=O)CC[C@H](NC(=O)CCCCCCCCCCCCCCCCCCC(=O)O)C(=O)O)C(=O)O)C(=O)N[C@@H](CC(N)=O)C(=O)N[C@@H]([C@@H](C)O)C(=O)N[C@@H](C)C(=O)N[C@@H]([C@@H](C)O)C(=O)N1)[C@@H](C)O)C(=O)N1CCC[C@H]1C(=O)N[C@@H](CO)C(=O)N[C@@H](CO)C(=O)N[C@H](C(=O)N[C@@H](CC(N)=O)C(=O)N[C@H](C(=O)NCC(=O)N[C@@H](CO)C(=O)N[C@@H](CC(N)=O)C(=O)N[C@H](C(=O)N[C@@H](Cc1ccc(O)cc1)C(N)=O)[C@@H](C)O)C(C)C)[C@@H](C)O
notes: modifications are with respect to human amylin; also called compound 15
For B3, in experiment [5], the “Ratio hCT/hAmylin binding” value was determined as 26.

B4: N^ε1-[2-[2-[2-[[(4S)-4-carboxy-4-(19-carboxynonadecanoylamino)butanoyl]amino]ethoxy]ethoxy]acetyl]-[Arg17,Pro21,Pro27,Arg35]-h-amylin (peptide)
peptide: K([AEEA-γGlu-C20 diacid])CNTATCATQRLANFLRHSSPNFGAIPSSTNVGSRTY-NH2
modifications: disulfide 2-7; N-terminus assumed
SMILES: CC[C@H](C)[C@H](NC(=O)[C@H](C)NC(=O)CNC(=O)[C@H](Cc1ccccc1)NC(=O)[C@H](CC(N)=O)NC(=O)[C@@H]1CCCN1C(=O)[C@H](CO)NC(=O)[C@H](CO)NC(=O)[C@H](Cc1c[nH]cn1)NC(=O)[C@H](CCCNC(=N)N)NC(=O)[C@H](CC(C)C)NC(=O)[C@H](Cc1ccccc1)NC(=O)[C@H](CC(N)=O)NC(=O)[C@H](C)NC(=O)[C@H](CC(C)C)NC(=O)[C@H](CCCNC(=N)N)NC(=O)[C@H](CCC(N)=O)NC(=O)[C@@H](NC(=O)[C@H](C)NC(=O)[C@@H]1CSSC[C@H](NC(=O)[C@@H](N)CCCCNC(=O)COCCOCCNC(=O)CC[C@H](NC(=O)CCCCCCCCCCCCCCCCCCC(=O)O)C(=O)O)C(=O)N[C@@H](CC(N)=O)C(=O)N[C@@H]([C@@H](C)O)C(=O)N[C@@H](C)C(=O)N[C@@H]([C@@H](C)O)C(=O)N1)[C@@H](C)O)C(=O)N1CCC[C@H]1C(=O)N[C@@H](CO)C(=O)N[C@@H](CO)C(=O)N[C@H](C(=O)N[C@@H](CC(N)=O)C(=O)N[C@H](C(=O)NCC(=O)N[C@@H](CO)C(=O)N[C@@H](CCCNC(=N)N)C(=O)N[C@H](C(=O)N[C@@H](Cc1ccc(O)cc1)C(N)=O)[C@@H](C)O)C(C)C)[C@@H](C)O
notes: modifications are with respect to human amylin; also called compound 38
For the molecule B4, the half-inhibitory concentration (IC50) in experiment [6] turned out to be 38 nM; in experiment [7], 0.383 nM.
